Data set [1] deals with Streptococcus thermophilus Rgg3 (S. thermophilus). The data set is described as follows: cryo-EM structure.
Data set [2] has as its target Streptococcus dysgalactiae Rgg2 (S. dysgalactiae). The data set is described as follows: crystal structure.
Data set [3] concerns the target T1, Rgg3St (Streptococcus thermophilus, UniProt Q5M4D0 1-284).
T1 sequence: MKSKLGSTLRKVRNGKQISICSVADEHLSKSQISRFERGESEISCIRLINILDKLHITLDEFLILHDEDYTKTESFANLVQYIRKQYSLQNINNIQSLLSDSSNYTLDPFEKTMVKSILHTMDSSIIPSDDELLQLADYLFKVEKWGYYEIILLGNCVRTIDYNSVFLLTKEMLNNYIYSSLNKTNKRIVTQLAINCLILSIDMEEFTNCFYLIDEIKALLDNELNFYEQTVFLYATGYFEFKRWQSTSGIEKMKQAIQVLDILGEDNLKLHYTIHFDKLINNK
As to the kind of experiment: X-ray crystallography.

In the case of “Streptococcus thermophilus Rgg3 (natural protein)”, the stoichiometry N in data set [1] stood at 2.
Turning to “Streptococcus dysgalactiae Rgg2 (natural protein)”, the stoichiometry N in data set [2] came to 2.

B1: Rgg3 box (pSHP3DNA) (dsDNA)
DNA 1: CATAATTTTCCCATTTCCCCAACAAAAAAG
DNA 2: TTTTTGTTGGGGAAATGGGAAAATTATGCT
Consider B1, for which the binding result in data set [3] is reported as “binds”.
